Source: US20250064952A1 (ACCELERON PHARMA, published 2025)

T1: activin B (UniProt P09529 293-407)
T1 sequence (looked up): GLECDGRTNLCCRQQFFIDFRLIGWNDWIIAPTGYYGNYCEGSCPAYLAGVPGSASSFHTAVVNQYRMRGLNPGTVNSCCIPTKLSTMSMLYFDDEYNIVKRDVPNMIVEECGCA

T2: GDF8 (UniProt O14793 267-375)
T2 construct: also called myostatin
T2 sequence (looked up): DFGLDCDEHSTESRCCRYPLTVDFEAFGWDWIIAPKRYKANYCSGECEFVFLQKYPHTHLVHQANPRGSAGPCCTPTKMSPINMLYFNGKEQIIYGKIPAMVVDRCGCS

T3: BMP6 (UniProt P22004 382-513, limits assumed)
T3 sequence (looked up): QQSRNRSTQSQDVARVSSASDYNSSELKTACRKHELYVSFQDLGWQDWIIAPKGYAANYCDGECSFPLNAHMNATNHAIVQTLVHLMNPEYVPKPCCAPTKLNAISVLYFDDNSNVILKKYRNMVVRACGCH

T4: activin AC (UniProt P08476 311-426; P55103 237-352)
T4 construct: Heterodimer of beta A and beta C
T4 sequence (looked up) 1: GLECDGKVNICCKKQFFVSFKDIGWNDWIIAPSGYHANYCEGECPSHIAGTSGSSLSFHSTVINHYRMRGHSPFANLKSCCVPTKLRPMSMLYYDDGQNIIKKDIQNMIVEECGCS
T4 sequence (looked up) 2: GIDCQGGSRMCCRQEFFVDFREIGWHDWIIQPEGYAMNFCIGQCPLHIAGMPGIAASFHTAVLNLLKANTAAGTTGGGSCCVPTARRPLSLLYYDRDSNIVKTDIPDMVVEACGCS

T5: BMP5 (UniProt P22003 317-454, limits assumed)
T5 sequence (looked up): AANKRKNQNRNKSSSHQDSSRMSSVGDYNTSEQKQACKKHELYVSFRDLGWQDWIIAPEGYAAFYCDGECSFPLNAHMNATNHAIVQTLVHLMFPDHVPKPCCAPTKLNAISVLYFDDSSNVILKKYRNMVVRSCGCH

B1: BMP10 (ligand, UniProt O95393 317-424, looked up)
chain: NAKGNYCKRTPLYIDFKEIGWDSWIIAPPGYEAYECRGVCNYPLAEHLTPTKHAIIQALVHLKNSQKASKACCVPTKLEPISILYLDKGVVTYKFKYEGMAVSECGCR
B2: BMP9 (ligand, UniProt Q9UK05 320-429, looked up)
chain: SAGAGSHCQKTSLRVNFEDIGWDSWIIAPKEYEAYECKGGCFFPLADDVTPTKHAIVQTLVHLKFPTKVGKACCVPTKLSPISVLYKDDMGVPTLKYHYEGMSVAECGCR
notes: also called GDF2
B3: ActRIIB-Fc:ActRIIB(L79E)-Fc heterodimer (Fc fusion)
chain 1: GRGEAETRECIYYNANWELERTNQSGLERCEGEQDKRLHCYASWRNSSGTIELVKKGCWLDDFNCYDRQECVATEENPQVYFCCCEGNFCNERFTHLPEAGGPEVTYEPPPTAPTGGGTHTCPPCPAPELLGGPSVFLFPPKPKDTLMISRTPEVTCVVVDVSHEDPEVKFNWYVDGVEVHNAKTKPREEQYNSTYRVVSVLTVLHQDWLNGKEYKCKVSNKALPAPIEKTISKAKGQPREPQVYTLPPSRKEMTKNQVSLTCLVKGFYPSDIAVEWESNGQPENNYKTTPPVLKSDGSFFLYSKLTVDKSRWQQGNVFSCSVMHEALHNHYTQKSLSLSPGK
chain 2: GRGEAETRECIYYNANWELERTNQSGLERCEGEQDKRLHCYASWRNSSGTIELVKKGCWEDDFNCYDRQECVATEENPQVYFCCCEGNFCNERFTHLPEAGGPEVTYEPPPTAPTGGGTHTCPPCPAPELLGGPSVFLFPPKPKDTLMISRTPEVTCVVVDVSHEDPEVKFNWYVDGVEVHNAKTKPREEQYNSTYRVVSVLTVLHQDWLNGKEYKCKVSNKALPAPIEKTISKAKGQPREPQVYTLPPSREEMTKNQVSLTCLVKGFYPSDIAVEWESNGQPENNYDTTPPVLDSDGSFFLYSDLTVDKSRWQQGNVFSCSVMHEALHNHYTQKSLSLSPG
notes: also called ActRIIB-Fc:ActRIIB(L79E)-Fc heteromer
B4: activin A (ligand, UniProt P08476 311-426, looked up)
chain: T4 sequence (looked up) 1
B5: GDF11 (ligand, UniProt O95390 299-407, looked up)
chain: NLGLDCDEHSSESRCCRYPLTVDFEAFGWDWIIAPKRYKANYCSGQCEYMFMQKYPHTHLVQQANPRGSAGPCCTPTKMSPINMLYFNDKQQIIYGKIPGMVVDRCGCS
notes: also called BMP11
B6: GDF3 (ligand, UniProt Q9NR23 251-364, looked up)
chain: AAIPVPKLSCKNLCHRHQLFINFRDLGWHKWIIAPKGFMANYCHGECPFSLTISLNSSNYAFMQALMHAVDPEIPQAVCIPTKLSPISMLYQDNNDNVILRHYEDMVVDECGCG
notes: also called VGR2
B7: ActRIIB-Fc homodimer (Fc fusion, human, UniProt Q13705 19-137, looked up, not shown: a dimerising Fc or GST)
chain: SGRGEAETRECIYYNANWELERTNQSGLERCEGEQDKRLHCYASWRNSSGTIELVKKGCWLDDFNCYDRQECVATEENPQVYFCCCEGNFCNERFTHLPEAGGPEVTYEPPPTAPTLLT
notes: extracellular domain; also called unmodified ActRIIB-Fc homodimer; ActRIIB-Fc:ActRIIB-Fc homodimer

Key:
ActRIIB-Fc homodimer [1] = molecular target: B7; test: SPR (Biacore), anti-Fc capture, ligand in flow
Method: (§1) A Biacore™-based binding assay was used to compare ligand binding selectivity of the ActRIIB-Fc:ALK4-Fc heterodimeric complex described above with that of ActRIIB-Fc and ALK4-Fc homodimer complexes. The ActRIIB-Fc:ALK4-Fc heterodimer, ActRIIB-Fc homodimer, and ALK4-Fc homodimer were independently captured onto the system using an anti-Fc antibody. Ligands were injected and allowed to flow over the captured receptor protein. Results are summarized in the table below, in which ligand off-rates (kd) most indicative of effective ligand traps are denoted by bold font.

ActRIIB-Fc homodimer [2] = molecular target: B7; test: SPR (Biacore), 37 C, anti-Fc capture, ligand in flow
Method: (§2) A Biacore™-based binding assay was used to compare the ligand binding kinetics of an ActRIIB-Fc:ActRIIB(L79E)-Fc heterodimer with those of unmodified ActRIIB-Fc homodimer. Fusion proteins were captured onto the system using an anti-Fc antibody. Ligands were then injected and allowed to flow over the captured receptor protein at 37° C. Results are summarized in the table below, in which ligand off-rates (kd) most indicative of effective ligand traps are denoted in bold.

ActRIIB-Fc homodimer [3] = molecular target: B7; test: SPR (Biacore), anti-Fc capture, ligand in flow; remark: listed apart in the source
Method: (§3) A Biacore™-based binding assay was used to compare ligand binding selectivity of the ActRIIB-Fc:ALK7-Fc heterodimeric complex described above with that of ActRIIB-Fc and ALK7-Fc homodimeric complexes. The ActRIIB-Fc:ALK7-Fc heterodimer, ActRIIB-Fc homodimer, and ALK7-Fc homodimer were independently captured onto the system using an anti-Fc antibody. Ligands were injected and allowed to flow over the captured receptor protein. Results are summarized in the table below, in which ligand off-rates (kd) most indicative of effective ligand traps are denoted by bold font.

activin B = molecular target: T1, activin B; test: SPR (Biacore), 37 C, anti-Fc capture, ligand in flow
Method: as §2

activin A = molecular target: B4; test: as above
Method: as §2

GDF8 = molecular target: T2, GDF8; test: as above
Method: as §2

BMP6 [4] = molecular target: T3, BMP6; test: as above
Method: as §2

BMP10 = molecular target: B1; test: as above
Method: as §2

GDF3 = molecular target: B6; test: as above
Method: as §2

BMP9 = molecular target: B2; test: as above
Method: as §2

GDF11 = molecular target: B5; test: as above
Method: as §2

BMP6 [5] = molecular target: T3, BMP6; test: SPR (Biacore), anti-Fc capture, ligand in flow
Method: as §1

activin AC = molecular target: T4, activin AC; test: SPR (Biacore), anti-Fc capture, ligand in flow
Method: as §3

BMP6 [6] = molecular target: T3, BMP6; test: SPR (Biacore), anti-Fc capture, ligand in flow; remark: listed apart in the source
Method: as §3

BMP5 = molecular target: T5, BMP5; test: SPR (Biacore), anti-Fc capture, ligand in flow
Method: as §3

Binder: B1
- Kd (ActRIIB-Fc homodimer [1]): 0.011 nM
- koff (ActRIIB-Fc homodimer [1]): 0.00026 s⁻¹
- kon (ActRIIB-Fc homodimer [1]): 2.3e+07 M⁻¹ s⁻¹
- Kd (ActRIIB-Fc homodimer [2]): 0.004 nM
- koff (ActRIIB-Fc homodimer [2]): 0.0002 s⁻¹
- kon (ActRIIB-Fc homodimer [2]): 5.1e+07 M⁻¹ s⁻¹
- Kd (ActRIIB-Fc homodimer [3]): 0.025 nM
- koff (ActRIIB-Fc homodimer [3]): 0.00015 s⁻¹
- kon (ActRIIB-Fc homodimer [3]): 5.9e+06 M⁻¹ s⁻¹

Binder: B2
- Kd (ActRIIB-Fc homodimer [1]): 0.077 nM
- koff (ActRIIB-Fc homodimer [1]): 0.0011 s⁻¹
- kon (ActRIIB-Fc homodimer [1]): 1.4e+07 M⁻¹ s⁻¹
- Kd (ActRIIB-Fc homodimer [2]): 0.25 nM
- koff (ActRIIB-Fc homodimer [2]): 0.0013 s⁻¹
- kon (ActRIIB-Fc homodimer [2]): 5e+06 M⁻¹ s⁻¹
- Kd (ActRIIB-Fc homodimer [3]): 0.01 nM
- koff (ActRIIB-Fc homodimer [3]): 0.001 s⁻¹
- kon (ActRIIB-Fc homodimer [3]): 1.2e+08 M⁻¹ s⁻¹

Binder: B3
- Kd (activin B): 0.025 nM
- koff (activin B): 0.00021 s⁻¹
- kon (activin B): 8.3e+06 M⁻¹ s⁻¹
- Kd (activin A): 0.17 nM
- fold faster off-rate vs ActRIIB-Fc homodimer (activin A): ~10 fold
- koff (activin A): 0.0015 s⁻¹
- kon (activin A): 8.8e+06 M⁻¹ s⁻¹
- Kd (GDF8): 0.15 nM
- koff (GDF8): 0.0005 s⁻¹
- kon (GDF8): 3.4e+06 M⁻¹ s⁻¹
- Kd (BMP6 [4]): 0.056 nM
- koff (BMP6 [4]): 0.018 s⁻¹
- kon (BMP6 [4]): 3.3e+08 M⁻¹ s⁻¹
- Kd (BMP10): 0.042 nM
- fold faster off-rate vs ActRIIB-Fc homodimer (BMP10): ~10 fold
- koff (BMP10): 0.002 s⁻¹
- kon (BMP10): 4.8e+07 M⁻¹ s⁻¹
- Kd (GDF3): 10 nM
- koff (GDF3): 0.0059 s⁻¹
- kon (GDF3): 580000 M⁻¹ s⁻¹
- Kd (BMP9): > 2.8 nM
- Kd (GDF11): 0.009 nM
- koff (GDF11): 0.00036 s⁻¹
- kon (GDF11): 4e+07 M⁻¹ s⁻¹

Binder: B4
- Kd (ActRIIB-Fc homodimer [1]): 0.019 nM
- koff (ActRIIB-Fc homodimer [1]): 0.00023 s⁻¹
- kon (ActRIIB-Fc homodimer [1]): 1.2e+07 M⁻¹ s⁻¹
- Kd (ActRIIB-Fc homodimer [2]): 0.025 nM
- koff (ActRIIB-Fc homodimer [2]): 0.00019 s⁻¹
- kon (ActRIIB-Fc homodimer [2]): 7.4e+06 M⁻¹ s⁻¹
- Kd (ActRIIB-Fc homodimer [3]): 0.011 nM
- koff (ActRIIB-Fc homodimer [3]): 0.00014 s⁻¹
- kon (ActRIIB-Fc homodimer [3]): 1.3e+07 M⁻¹ s⁻¹

Binder: B5
- Kd (ActRIIB-Fc homodimer [1]): 0.002 nM
- koff (ActRIIB-Fc homodimer [1]): 0.00011 s⁻¹
- kon (ActRIIB-Fc homodimer [1]): 5e+07 M⁻¹ s⁻¹
- Kd (ActRIIB-Fc homodimer [2]): 0.004 nM
- koff (ActRIIB-Fc homodimer [2]): 0.00017 s⁻¹
- kon (ActRIIB-Fc homodimer [2]): 4.1e+07 M⁻¹ s⁻¹
- Kd (ActRIIB-Fc homodimer [3]): 0.002 nM
- koff (ActRIIB-Fc homodimer [3]): 0.00015 s⁻¹
- kon (ActRIIB-Fc homodimer [3]): 9.6e+07 M⁻¹ s⁻¹

Binder: B6
- Kd (ActRIIB-Fc homodimer [1]): 1.5 nM
- koff (ActRIIB-Fc homodimer [1]): 0.0022 s⁻¹
- kon (ActRIIB-Fc homodimer [1]): 1.4e+06 M⁻¹ s⁻¹
- Kd (ActRIIB-Fc homodimer [2]): 1.5 nM
- koff (ActRIIB-Fc homodimer [2]): 0.0022 s⁻¹
- kon (ActRIIB-Fc homodimer [2]): 1.4e+06 M⁻¹ s⁻¹
- Kd (ActRIIB-Fc homodimer [3]): 1.5 nM
- koff (ActRIIB-Fc homodimer [3]): 0.0022 s⁻¹
- kon (ActRIIB-Fc homodimer [3]): 1.4e+06 M⁻¹ s⁻¹

Binder: B7
- Kd (BMP6 [5]): 0.19 nM
- koff (BMP6 [5]): 0.0068 s⁻¹
- kon (BMP6 [5]): 3.2e+07 M⁻¹ s⁻¹
- Kd (BMP6 [4]): 0.056 nM
- koff (BMP6 [4]): 0.0074 s⁻¹
- kon (BMP6 [4]): 1.3e+08 M⁻¹ s⁻¹
- Kd (activin AC): 0.16 nM
- koff (activin AC): 0.0031 s⁻¹
- kon (activin AC): 2e+07 M⁻¹ s⁻¹
- Kd (BMP6 [6]): 0.16 nM
- koff (BMP6 [6]): 0.0039 s⁻¹
- kon (BMP6 [6]): 2.4e+07 M⁻¹ s⁻¹
- Kd (BMP5): 2.9 nM
- koff (BMP5): 0.075 s⁻¹
- kon (BMP5): 2.6e+07 M⁻¹ s⁻¹
